± gives the uncertainty stated by the source.
Test: self-splicing fitness, log relative to wild type (ln ratio); higher = more splicing; Tetrahymena group I intron in knt gene, E. coli kanamycin selection, DiMSum; sequences stand for … in CUCUCU…GGAGGGAAAAGUUAUCAGGCAUGCACCUGGUAGCUAGUCUUUAAACCAAUAGAUUGCAUCGGUUUAAAAGGCAAGACCGUCAAAUUGCGGGAAAGGGGUCAACAGCCGUUCAGUACCAAGUCUCAGGGGAAACUUUGAGAUGGCCUUGCAAAGGGUAUGGUAAUAAGCUGACGGACAUGGUCCUAACCACGCAGCCAAGUCCUAAGUCAACAGAUCUUCUGUUGAUAUGGAUGCAGUUCACAGACUAAAUGUCGGUCGGGGAAGAUGUAUUCUUCUCAUAAGAUAUAGUCGGACCUCUCCUUAAUGGGAGCUAGCGGAUGAAGUGAUGCAACACUGGAGCCGCUGGGAACUAAUUUGUAUGCGAAAGUAUAUUGAUUAGUUUUGGAGUACUCGUGGUCG
Summary of the method: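 Colonies from six replicate transformations of E. coli BL21(DE3) were pooled and amplicon-sequenced on an Illumina HiSeq 2500. The library placed an intron with all eight P1ex-region nucleotides randomised inside the knt kanamycin-resistance gene on pET-22b(+), and cells grew overnight at 37°C or 30°C on LB agar with or without 25 μg/mL kanamycin (plus 100 μg/mL carbenicillin, 50 μM IPTG, 0.2% rhamnose). Fitness is the DiMSum error-weighted combination of wild-type-normalised replicate fold changes, kanamycin versus none.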

| Sequence | self-splicing fitness (ln) (30 °C) | self-splicing fitness (ln) (37 °C) |
| --- | --- | --- |
| CGUCAGCAAUAUUACGGUGG | -1.26 ± 0.071 | -0.629 ± 0.096 |
| CGUCAGCAAUAUUACGUAGG | -0.704 ± 0.055 | 0.23 ± 0.086 |
| CGUCAGCAAUAUUACGUCAA | -2.64 ± 0.11 | -1.61 ± 0.1 |
| CGUCAGCAAUAUUACGUCAG | -0.465 ± 0.069 | 0.175 ± 0.083 |
| CGUCAGCAAUAUUACGUCGG | -0.413 ± 0.042 | 0.115 ± 0.06 |
| CGUCAGCAAUAUUACGUCGU | -3 ± 0.09 | -1.99 ± 0.11 |
| CGUCAGCAAUAUUACGUGCG | -4.56 ± 0.31 | -2.21 ± 0.19 |
| CGUCAGCAAUAUUACGUUCC | -2.43 ± 0.16 | -1.18 ± 0.23 |
| CGUCAGCAAUAUUACGUUUU | -3.25 ± 0.098 | -1.55 ± 0.094 |
| CGUGAGCAAUAUUACGAUAU | -2.77 ± 0.14 | -2.71 ± 0.23 |
| CGUGAGCAAUAUUACGAUCG | -3.02 ± 0.27 | 0.475 ± 0.25 |
| CGUGAGCAAUAUUACGAUUU |  | -2.24 ± 0.29 |
| CGUGAGCAAUAUUACGCAAU | -2.52 ± 0.14 | -2.75 ± 0.25 |
| CGUGAGCAAUAUUACGCAUG | -0.06 ± 0.18 | -1.13 ± 0.27 |
| CGUGAGCAAUAUUACGCUAU | -2.39 ± 0.17 | -2.49 ± 0.23 |
| CGUGAGCAAUAUUACGCUCU | -1.76 ± 0.36 |  |
| CGUGAGCAAUAUUACGCUUA |  | -2.18 ± 0.35 |
| CGUGAGCAAUAUUACGGAAU |  | -2.84 ± 0.38 |
| CGUGAGCAAUAUUACGGACA | -1.29 ± 0.16 | -0.944 ± 0.19 |
| CGUGAGCAAUAUUACGGAGA | -3.88 ± 0.33 | -1.57 ± 0.25 |
| CGUGAGCAAUAUUACGGCCA | -2.35 ± 0.49 |  |
| CGUGAGCAAUAUUACGGCUG | -0.246 ± 0.073 | 0.0364 ± 0.094 |
| CGUGAGCAAUAUUACGGCUU | -3.31 ± 0.18 | -3.81 ± 0.33 |
| CGUGAGCAAUAUUACGGGAC |  | -1.88 ± 0.41 |
| CGUGAGCAAUAUUACGGGCC | -1.9 ± 0.32 |  |
| CGUGAGCAAUAUUACGGUAA |  | -2.41 ± 0.25 |
| CGUGAGCAAUAUUACGGUCU | -2.56 ± 0.17 | -2.16 ± 0.42 |

| Sequence | self-splicing fitness (ln) (30 °C) | self-splicing fitness (ln) (37 °C) |
| --- | --- | --- |
| CGUGAGCAAUAUUACGUAAA |  | -2.03 ± 0.33 |
| CGUGAGCAAUAUUACGUACG |  | -0.531 ± 0.23 |
| CGUGAGCAAUAUUACGUACU | -1.7 ± 0.12 | -0.396 ± 0.14 |
| CGUGAGCAAUAUUACGUGAG | -0.77 ± 0.072 | -1.61 ± 0.097 |
| CGUGAGCAAUAUUACGUGGC | -3.73 ± 0.37 | -3.16 ± 0.4 |
| CGUGAGCAAUAUUACGUGGU | -3.02 ± 0.17 | -2.42 ± 0.22 |
| CGUGAGCAAUAUUACGUGUU | -3.22 ± 0.3 | -2.86 ± 0.32 |
| CGUGAGCAAUAUUACGUUAG | -2.02 ± 0.081 | -1 ± 0.094 |
| CGUUAGCAAUAUUACGAAUC | -2.95 ± 0.28 | -2.42 ± 0.3 |
| CGUUAGCAAUAUUACGACGG | 0.168 ± 0.13 | -0.377 ± 0.12 |
| CGUUAGCAAUAUUACGACUC | -0.808 ± 0.25 | 0.024 ± 0.23 |
| CGUUAGCAAUAUUACGAGAA | -1.93 ± 0.49 | -1.45 ± 0.46 |
| CGUUAGCAAUAUUACGAUAA | -2.9 ± 0.26 | -1.52 ± 0.22 |
| CGUUAGCAAUAUUACGCAGA | -3.21 ± 0.41 | -2.31 ± 0.23 |
| CGUUAGCAAUAUUACGCAUU | -4.27 ± 0.25 | -1.29 ± 0.12 |
| CGUUAGCAAUAUUACGCCGG | -0.8 ± 0.11 | -0.767 ± 0.11 |
| CGUUAGCAAUAUUACGCGUA |  | -0.996 ± 0.25 |
| CGUUAGCAAUAUUACGCGUU | -4.08 ± 0.13 | -2.39 ± 0.12 |
| CGUUAGCAAUAUUACGCUAC | -1.48 ± 0.24 |  |
| CGUUAGCAAUAUUACGCUAU | -2.29 ± 0.28 |  |
| CGUUAGCAAUAUUACGGGGC | -2.57 ± 0.15 | -3.12 ± 0.28 |
| CGUUAGCAAUAUUACGUCAA |  | -1.41 ± 0.38 |
| CGUUAGCAAUAUUACGUCCC |  | -0.641 ± 0.36 |
| CGUUAGCAAUAUUACGUCGA | -2.71 ± 0.19 | -1.16 ± 0.2 |
| CGUUAGCAAUAUUACGUUCU | -1.39 ± 0.15 | -1.25 ± 0.14 |
| CGUUAGCAAUAUUACGUUGU | -4.22 ± 0.29 | -2.78 ± 0.22 |
